From patent publication US20230313180A1
Read-outs that look alike come from different tables or passages of the source.

Columns and labels:
[1] = biological target: SARS-CoV-2-RBD tagged with a C-terminal Fc tag (ACRO Biosystems) (SARS-CoV-2) (UniProt P0DTC2)
[2] = biological target: SARS-CoV-2-RBD tagged with a C-terminal Fc tag (ACRO Biosystems) (SARS-CoV-2) (UniProt P0DTC2); test: BLI, immobilized SARS-CoV-2 RBD
[3] = biological target: T1, SARS-CoV-2-RBD tagged with a C-terminal Fc tag (ACRO Biosystems) (SARS-CoV-2), P0DTC2
[4] = biological target: T1, SARS-CoV-2-RBD tagged with a C-terminal …; test: BLI, immobilized SARS-CoV-2 RBD; reference Nb1-Nb1 genetic dimer
[5] = biological target: T1, SARS-CoV-2-RBD tagged with a C-terminal …; test: BLI, immobilized SARS-CoV-2 RBD; reference (Nb1N)2
[6] = biological target: T1, SARS-CoV-2-RBD tagged with a C-terminal …; remark: listed apart in the source

With “Nb1-Nb1, genetically linked "tail to head" dimer of Nb1 (VHH72)” the Kd [1] was 89 nM, the koff [1] was 0.00314 s⁻¹ and the kon [1] was 35400 M⁻¹ s⁻¹. The Kd [2] was 88 nM.

B1: (Nb142)2, homodimer of Nb1 (VHH72) with Tet3.0 at framework position Gly42, joined by the 2-headed sTCO (PEG)12 linker (VHH)
VHH: QVQLQESGGGLVQAGGSLRLSCAASGRTFSEYAMGWFRQAPGKEREFVATISWSGGSTYYTDSVKGRFTISRDNAKNTVYLQMNSLKPDDTAVYYCAAAGLGTVVSEWDYDYYLDYWGQGTQVTVSS
modifications: not checked
With B1 the Kd [3] was 27.5 nM, the koff [3] was 0.00201 s⁻¹ and the kon [3] was 73100 M⁻¹ s⁻¹. For the same molecule, the fold tighter binding than Nb1-Nb1 [4] was 3 fold.

B2: (Nb113)2, homodimer of Nb1 (VHH72) with Tet3.0 at framework position Gln13, joined by the 2-headed sTCO (PEG)12 linker (VHH)
VHH: QVQLQESGGGLVQAGGSLRLSCAASGRTFSEYAMGWFRQAPGKEREFVATISWSGGSTYYTDSVKGRFTISRDNAKNTVYLQMNSLKPDDTAVYYCAAAGLGTVVSEWDYDYYLDYWGQGTQVTVSS
modifications: not checked
Work on B2 yielded a Kd [3] of 46 nM, a koff [3] of 0.00156 s⁻¹ and a kon [3] of 33800 M⁻¹ s⁻¹.

B3: (Nb1C)2, homodimer of Nb1 (VHH72) with Tet3.0 at the C-terminus, joined by the 2-headed sTCO (PEG)12 linker (VHH)
VHH: QVQLQESGGGLVQAGGSLRLSCAASGRTFSEYAMGWFRQAPGKEREFVATISWSGGSTYYTDSVKGRFTISRDNAKNTVYLQMNSLKPDDTAVYYCAAAGLGTVVSEWDYDYYLDYWGQGTQVTVSS
modifications: not checked
In the case of B3, the Kd [3] is reported as 132 nM, the koff [3] is reported as 0.0064 s⁻¹ and the kon [3] is reported as 48100 M⁻¹ s⁻¹. The fold weaker binding than Nb1-Nb1 [4] was 1.5 fold.

B4: (Nb1N)3, homotrimer of Nb1 (VHH72) with Tet3.0 at the N-terminal position, joined by the 3-armed Tri-sTCO PEG linker (VHH)
VHH: SGTGSQVQLQESGGGLVQAGGSLRLSCAASGRTFSEYAMGWFRQAPGKEREFVATISWSGGSTYYTDSVKGRFTISRDNAKNTVYLQMNSLKPDDTAVYYCAAAGLGTVVSEWDYDYYLDYWGQGTQVTVSS
modifications: not checked
B4 showed a fold larger kon than (Nb1N)2 [5] of 3 fold, a fold smaller koff than (Nb1N)2 [5] of 2 fold and a fold tighter KD than (Nb1N)2 [5] of 6 fold. For the same molecule, the Kd [6] was 2.31 nM, the koff [6] was 0.000566 s⁻¹ and the kon [6] was 246000 M⁻¹ s⁻¹. It also gave a fold tighter KD than the genetic dimer Nb1-Nb1 [4] of 44 fold.

B5: (Nb1N)2, homodimer of Nb1 (VHH72) with Tet3.0 at the N-terminal position, joined by the 2-headed sTCO (PEG)12 linker (VHH)
VHH: SGTGSQVQLQESGGGLVQAGGSLRLSCAASGRTFSEYAMGWFRQAPGKEREFVATISWSGGSTYYTDSVKGRFTISRDNAKNTVYLQMNSLKPDDTAVYYCAAAGLGTVVSEWDYDYYLDYWGQGTQVTVSS
modifications: not checked
Molecule B5 has a Kd [3] of 13.8 nM, a koff [3] of 0.00119 s⁻¹ and a kon [3] of 85800 M⁻¹ s⁻¹. The fold tighter binding than Nb1-Nb1 [4] was 7 fold.
